Earlier results, collected in patent US20040063697A1, “Compositions of cyclooxygenase-2 selective inhibitors and thrombolytic agents for the treatment or prevention of a vaso-occlusive event” (priority 2002, published 2004).

How the values were obtained:
[1] = for Antigenicity: in vivo; for immune response: when administered to a human
[2] = for Elimination / Half-Life: in vivo
plasminogen = plasminogen (Homo sapiens, UniProt P00747)
[3] = test system: coronary intimal proliferation; conditions: oral administration, swine model of restenosis
minimal lumen diameter = conditions: single dose intravenous pretreatment before coronary stenting, at 6 months
[4] = test system: vascular smooth muscle cells; conditions: in vitro
restenosis = conditions: orally administered, stent implanted pig arteries

Chain of plasminogen (P00747 20-810 limits assumed): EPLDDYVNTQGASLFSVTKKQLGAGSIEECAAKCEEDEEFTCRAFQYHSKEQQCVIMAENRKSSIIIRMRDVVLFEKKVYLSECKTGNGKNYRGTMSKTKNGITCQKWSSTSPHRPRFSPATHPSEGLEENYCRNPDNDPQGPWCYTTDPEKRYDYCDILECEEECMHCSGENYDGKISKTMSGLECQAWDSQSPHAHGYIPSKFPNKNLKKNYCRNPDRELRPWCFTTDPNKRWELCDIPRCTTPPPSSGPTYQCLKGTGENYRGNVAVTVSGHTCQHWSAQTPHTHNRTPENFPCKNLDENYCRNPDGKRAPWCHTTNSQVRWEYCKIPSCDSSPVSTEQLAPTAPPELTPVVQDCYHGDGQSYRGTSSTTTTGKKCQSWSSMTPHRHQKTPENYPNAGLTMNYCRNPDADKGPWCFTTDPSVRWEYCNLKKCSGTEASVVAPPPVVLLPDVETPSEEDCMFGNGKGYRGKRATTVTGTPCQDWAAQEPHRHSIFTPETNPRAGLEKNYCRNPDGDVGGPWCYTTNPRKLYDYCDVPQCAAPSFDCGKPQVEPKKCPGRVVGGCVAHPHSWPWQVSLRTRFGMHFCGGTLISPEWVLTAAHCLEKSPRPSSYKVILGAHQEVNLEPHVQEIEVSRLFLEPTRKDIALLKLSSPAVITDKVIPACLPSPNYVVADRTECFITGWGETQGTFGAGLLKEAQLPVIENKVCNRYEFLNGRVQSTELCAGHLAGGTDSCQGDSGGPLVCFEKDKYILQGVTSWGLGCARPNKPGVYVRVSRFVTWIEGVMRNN

| Compound | Antigenicity [1] | immune response [1] | Elimination [2] | Half-Life [2] [min] | Method of Plasminogen Activation (plasminogen) | activation of fibrin-bound plasminogen versus circulating plasminogen (plasminogen) | other results |
| --- | --- | --- | --- | --- | --- | --- | --- |
| Urokinase | No | does not elicit an immune response | Hepatic | 15 to 20 | Direct | activates fibrin-bound plasminogen as well as circulating plasminogen | – |
| CN(C)CCCO[C@@H]1[C@H]2OC(C)(C)O[C@H]2O[C@@H]1[C@H](O)CO.Cl [aniprilose hydrochloride] | – | – | – | – | – | – | coronary intimal proliferation [3]: did not prevent |
| Alteplase: biosynthetic, glycosylated form of human t-PA | No | no immune response is elicited | Hepatic | 4 to 8 | Direct | – | plasma clearance time and half-life ([2]; in words): rapid plasma clearance time and a short half-life |
| C[C@H]1C[C@@H]2[C@H]([C@@H](O)C[C@@]3(C)[C@H]2CC[C@]3(O)C(=O)CO)[C@@]2(C)C=CC(=O)C=C12 [methylpridnisolone] | – | – | – | – | – | – | change in minimal lumen diameter (minimal lumen diameter): no effect |
| COc1cc(/C=C/C(=O)CC(=O)/C=C/c2ccc(O)c(OC)c2)ccc1O [curcumin] | – | – | – | – | – | – | proliferation of vascular smooth muscle cells [4]: reduced proliferation |
| Streptokinase: plasminogen activator produced by beta-hemolytic streptococci | Yes | induce an immune response | Hepatic | 15 to 25 | Indirect | activate fibrin-bound plasminogen as well as circulating plasminogen | – |
| t-PA: tissue plasminogen activators | – | – | – | – | – | highly specific for the activation of fibrin-bound plasminogen over circulating plasminogen | – |
| COc1ccc(C=CC(=O)Nc2ccccc2C(=O)O)cc1OC [tranilast, N-(3,4-dimethoxycinnamoyl) anthranilic acid] | – | – | – | – | – | – | rate of restenosis (restenosis): lower rate of restenosis |
